Common to all, as to test: SPR (BIAcore T200), antibody captured on anti-human IgG, soluble monomeric antigen as analyte, 25 C, 1:1 fit
(In general: Surface plasmon resonance follows binding to a sensor surface in real time, without labels.)

Test [1] has as its target T1, cynomolgus monkey cMET (recombinant, soluble monomeric) (cynomolgus monkey, UniProt A0M8R7 25-932 (Papio anubis entry)).
T1 construct: also called cyno cMET
Here is the method: (§1) Mouse anti-human IgG was immobilized on a CM4 sensor chip with a final surface density of ˜2000 resonance units (RUs). A reference flow cell surface was also prepared on this sensor chip using identical immobilization protocol. Test and control article antibodies were prepared at 5-20 nM in instrument buffer (HBS-EP buffer; 0.01M HEPES, pH 7.4, 0.15M NaCl, 3 mM EDTA, and 0.005% P-20), along with 3-fold serial dilutions of purified EGFR (0.27-200 nM human, 0.4-900 nM cyno, and 4-1000 nM murine) or cMET proteins (0.27-66 nM human and 0.27-22 nM cyno) in instrument buffer. A sequential approach was utilized for kinetic measurements. Antibodies were first injected over the capture surface, at a flow rate of 10 μL/minute. Once the binding of the captured antibody stabilized, a single concentration of the analyte was injected over both capture and reference surfaces, at a flow rate of 75 μL/minute. The resulting binding response curves yielded the association phase data. Following the injection of analyte, the flow was then switched back to instrument buffer for 15 minutes to permit the collection of dissociation phase data, followed by a 1-minute pulse of 10 mM glycine, pH 1.5, to regenerate the antibody-captured surface on the chip. Binding responses against test and control article antibodies were recorded from duplicate injections of each concentration of analyte. In addition, several buffer injections were interspersed throughout the injection series. Select buffer injections were used along with the reference cell responses to correct the raw data sets for injection artifacts and/or nonspecific binding interactions, commonly referred to as “double referencing”. Corrected binding data were globally fit to a 1:1 binding model (Biacore T200 Evaluation software 2.0, GE Healthcare, Pittsburgh, PA).
(§2) Kinetic measurements to soluble monomeric forms of EGFR and cMET were performed using a BIACore instrument.

Test [2] has as its target T2, human cMET (recombinant, soluble monomeric) (human, UniProt P08581 25-932).
T2 construct: also called cMET antigen; His-tagged cMET antigen
The protocol:
as §1, §2

In test [3] the target is T3, cynomolgus monkey EGFR (recombinant, soluble monomeric) (cynomolgus monkey, UniProt P55245 25-645 (rhesus entry)).
T3 construct: also called cyno EGFR
Here is the method:
as §1, §2

Test [4] has as its target T4, human EGFR (recombinant, soluble monomeric) (human, UniProt P00533 25-645).
T4 construct: also called EGFR antigen
Here is the method:
as §1, §2

A further test has as its target T5, mouse EGFR (recombinant) (mouse, UniProt Q01279 25-647).
T5 construct: also called murine EGFR
The protocol:
as §1, §2

T2 sequence (P08581 25-932): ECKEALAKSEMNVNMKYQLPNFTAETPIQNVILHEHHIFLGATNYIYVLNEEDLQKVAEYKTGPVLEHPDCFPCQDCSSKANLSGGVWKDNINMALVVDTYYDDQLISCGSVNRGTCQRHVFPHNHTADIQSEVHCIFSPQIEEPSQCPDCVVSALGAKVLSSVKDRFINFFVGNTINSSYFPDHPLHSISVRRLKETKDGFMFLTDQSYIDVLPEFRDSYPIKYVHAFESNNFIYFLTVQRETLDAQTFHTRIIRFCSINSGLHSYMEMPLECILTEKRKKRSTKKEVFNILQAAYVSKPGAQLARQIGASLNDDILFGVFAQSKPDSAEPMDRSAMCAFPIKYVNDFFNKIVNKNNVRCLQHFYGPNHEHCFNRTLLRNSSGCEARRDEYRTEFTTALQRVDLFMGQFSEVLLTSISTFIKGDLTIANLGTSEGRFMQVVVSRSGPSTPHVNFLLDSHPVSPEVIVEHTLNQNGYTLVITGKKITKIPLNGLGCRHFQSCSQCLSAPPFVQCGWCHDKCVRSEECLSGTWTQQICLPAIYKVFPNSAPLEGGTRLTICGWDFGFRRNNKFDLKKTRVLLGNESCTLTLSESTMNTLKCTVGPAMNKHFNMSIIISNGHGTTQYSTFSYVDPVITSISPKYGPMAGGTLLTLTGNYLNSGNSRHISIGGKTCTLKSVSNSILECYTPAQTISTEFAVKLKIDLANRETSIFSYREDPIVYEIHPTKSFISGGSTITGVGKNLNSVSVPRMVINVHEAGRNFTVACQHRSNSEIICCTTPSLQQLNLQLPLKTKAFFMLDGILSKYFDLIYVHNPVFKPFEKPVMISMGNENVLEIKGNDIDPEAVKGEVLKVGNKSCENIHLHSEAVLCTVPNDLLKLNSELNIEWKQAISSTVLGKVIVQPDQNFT
T1 sequence (A0M8R7 25-932 S170N/I621T): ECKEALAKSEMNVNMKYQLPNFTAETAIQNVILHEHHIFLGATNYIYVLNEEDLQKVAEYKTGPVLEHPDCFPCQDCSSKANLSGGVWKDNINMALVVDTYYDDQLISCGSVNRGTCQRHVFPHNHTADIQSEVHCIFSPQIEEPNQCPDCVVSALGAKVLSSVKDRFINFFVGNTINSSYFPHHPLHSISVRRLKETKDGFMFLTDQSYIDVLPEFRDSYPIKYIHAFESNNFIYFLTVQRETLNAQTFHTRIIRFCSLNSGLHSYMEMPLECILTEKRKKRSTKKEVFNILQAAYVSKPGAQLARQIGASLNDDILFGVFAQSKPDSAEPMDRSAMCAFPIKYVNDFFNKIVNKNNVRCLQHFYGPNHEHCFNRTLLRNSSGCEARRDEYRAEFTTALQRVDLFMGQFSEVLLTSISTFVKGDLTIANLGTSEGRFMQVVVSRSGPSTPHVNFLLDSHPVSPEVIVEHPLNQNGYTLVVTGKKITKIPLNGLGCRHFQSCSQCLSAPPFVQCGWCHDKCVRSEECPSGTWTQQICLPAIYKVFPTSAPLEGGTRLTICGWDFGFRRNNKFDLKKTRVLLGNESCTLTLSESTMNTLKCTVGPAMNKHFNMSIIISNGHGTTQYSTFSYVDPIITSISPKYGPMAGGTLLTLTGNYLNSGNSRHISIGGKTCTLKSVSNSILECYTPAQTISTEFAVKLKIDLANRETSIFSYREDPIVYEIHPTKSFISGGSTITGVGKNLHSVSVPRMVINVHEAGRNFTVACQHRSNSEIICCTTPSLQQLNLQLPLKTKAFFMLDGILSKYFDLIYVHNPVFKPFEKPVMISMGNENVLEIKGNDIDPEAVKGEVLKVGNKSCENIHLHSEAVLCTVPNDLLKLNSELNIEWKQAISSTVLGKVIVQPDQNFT

B1: RAA22/B09-57 DuetMab (bispecific antibody, V domains shown)
VH 1: QVQLVQSGAEVKKPGSSVKVSCKASGGTFSDNDFSWVRQAPGQGLEWMGAIVAVFRTETYAQKFQDRVKITADISTRTTYMELSSLRSEDTAVYYCARRLMSAISGPGAPLLMWGQGTLVTVSS
VL 1: QSALTQPRSVSGSPGQSVTISCTGTSSDVGGYNYVSWYQQHPGKAPKLMIYDVSKRPSGVPDRFSGSKSGNTASLTISGLQAEDEADYYCSSYTSSDTLEIFGGGTKLTVL
VH 2: QVQLVQSGAEVKKPGASVKVSCKASGYTFTDYYIHWVRQATGQGLEWMGWMNPNSGNTGYAQKFQGRVTMTRDTSISTAYMELSSLRSEDTAVYYCARGQGYTHSWGQGTMVTVSS
VL 2: DIQMTQSPSTLSASVGDRVTITCRASEGIYHWLAWYQQKPGKAPKLLIYKASSLASGVPSRFSGSGSGTEFTLTISSLQPDDFATYYCQQYSNYPPTFGGGTKLEIK
notes: RAA22 VH on Hole heavy chain (T366S, L368A, Y407V, Y349C) with lambda CL; cysteine insertion after S239; also called RAA22/B09 DuetMab; RAA22/B09 bispecific mAb
Usually Kd stands for the constant that tells how readily two partners part at equilibrium. What is called koff is the first-order rate constant of dissociation. Broadly, the kon is the second-order rate constant of association. Consider B1, for which the Kd in test [1] amounted to 0.0022 µM; in test [2] it was 0.0022 µM; in test [3], 0.197 µM; in test [4], 0.045 µM; in the test with mouse EGFR (recombinant), 0.575 µM. Moreover, the koff in test [1] stood at 0.00212 s⁻¹; in test [2] it was 0.000986 s⁻¹; in test [3] it was 0.00548 s⁻¹; in test [4], 0.00201 s⁻¹; with mouse EGFR (recombinant), 0.0206 s⁻¹. Moreover, the kon in test [1] is 974000 M⁻¹ s⁻¹; in test [2], 443000 M⁻¹ s⁻¹; in test [3] it was 27800 M⁻¹ s⁻¹; in test [4], 44700 M⁻¹ s⁻¹; with mouse EGFR (recombinant) it was 35400 M⁻¹ s⁻¹.

For the origin of these results see patent US20250121104A1 (FUSION PHARMACEUTICALS, published 2025).
